Data taken from a protein production outcome set (Wang et al. 2014).

Assay: label from the status in PepcDB records

Which protein production does the source give for “MTQVRETVSFKAGDVILYPGVPGPRDRAYRVLEGLVRLEAVDEEGNALTLRLVRPGGFFGEEALFGQERIYFAEAATDVRLEPLPENPDPELLKDLAQHLSQGLAEAYRRIERLATQRLKNRMAAALLELSETPLAHEEEGKVVLKATHDELAAAVGSVRETVTKVIGELAREGYIRSGYGKIQLLDLKGLKELAESRGQGR” here?
Its protein production is “not failed”.

Which protein production does the source give for “MTQVSIIVPVLNEESTIHSAVSRLCRDFPDCELIVVDGGSTDATAELAALHATVIGSERGRAKQMNEGARHASGGILWFIHADTAIEPEALGQIRSVLADPAVVAGGLTLRFDRRTPALNYLAWTSNARARRLHHIFGDQAMFIRRTAFDELGGFPDLAIMEDLEMSRRLHRRGPLRLLPATSTASSRRLTAHGTWRMIAFMQYLKLLYFAGADPEAIRARYTAGPRLFPKRNPATLEHHHHHH” here?
The protein production was “failed”.

With “MTQYTHIRNATGKLTIKNTTFLIDPFLAPKDTYPGFEGTFNYQQRMPMVDLPLSMDDLLSNVTAVVVTHTHLDHWDDTAINSIPKSLPIFVQNTADKELITSQGFIDVRIIFESLEFNGITLRKTGGSHGTVEMYANPVLAPLAGDAMGVIFEAADEPTVYLVGDTVWTSDVEKALLRFDPNVIIMNTGYAQILGFEDSIIMGTKDIGRMVVRKPEAKIIAVHMDTVNHTATSRKDVRKFIKGNNIESHVAVPEDGETITL” as the sequence, how does the protein production read?
The protein production was “not failed”.

With “MTRAINDPGNEDPGSLLETDADALLGGAAAQAPEERCRLAAQACIRACERYLALCTESSREQRQHAGDCADLCRLAALLLERRSPWAPAACELAARYALACAERCDGDEPLERECAGACRRFVEACRPLLPALEHHHHHH” as the sequence, how does the protein production read?
The protein production was “not failed”.

With “MTRAKAPMEGVKLNSLLKVEDFATQSQFLGVNPIWNNNSTQLVEPPSIVNDEEEETEPLLPVEFTLVERNLEDGLVEEIIFSSGGEIDVYDLQGLCDKVGWPRRPLVKLAAALKNSYMVATLHSVMKSSSDSDSSEGGDGEKQQEKKLIGMARATSDHAFNATIWDVLVDPEYQGQGLGKALVEKLVRALLQRDIGNISLFADSQVVDFYQNLGFEADPEGIKGMFWYPK” as the sequence, how does the protein production read?
Its protein production is “failed”.

Which protein production does the source give for “MTREIIPILPEAPVETARSGNALPLLREIAEHLHHLLETGEASTIDLSALPLTPGDLEWLRAELGGGEVSVTLHADGASTLDETAFPGVWWIIHRNAQGAVTTQFIEVAFVPELVKSPRADVAAARAALVLRMADL” here?
The protein production was “not failed”.

For “MTRKSFPFFLLGLILTVGIDQAVKYWVMHNIPLGTETPLLPFLSLYHVRNSGIAFSFFSSFSHWGLIFLTLIILIFLLWLWKNTQYNKSLTRFGFTLIIGGAIGNLIDRICFYYVIDYILFYINDVFYFAVFNLADTFITLGVIAIIIEELLSWIKRKSTFSE”, which protein production is on record?
Its protein production is “failed”.

With “MTRLFSRPYPLGATLNKEGCNFSIHAPGVKDIQLALFASDGSYSLHDLPNEYAGIRHTFIPDIKPGQKYGYVVTRRDEPLLISDPYAKSLDKALHYHPPYTPAKSFDMPKCVVIE” as the sequence, how does the protein production read?
The protein production was “failed”.

Which protein production does the source give for “MTRPAHPISRYPVPELAALPDDIRQRILEVQDKAGFVPNVFLTLAHRPDEFRAFFAYHDALMLKDGGLTKGEREMIVVATSAANQCLYCVVAHGAILRIYEKKPLVADQVAVNYLKADIPPRQRAMLDFALKVCKASHEVNEADFEALREHGFTDEDAWDIAAITAFFGLSNRMANTIGMRPNDEFFLMGRVPKSK” here?
The protein production was “not failed”.

With “MTRRAAEEILPSSLFRDPDTERVTARTGAYLKIGVIAPALMVADVWLAQQLFPGFDAGAQFISELGGPEAPMPEIFNYGMVIAGIAGLFAGAGFAHALEHAGGRRVVSAFAGLFVALTGLGAIFAGIFHWPDPMHRACGVGLGIQFAPLFAAWALWGKPDYRRLAQFSLGWFFGLLLVFALLTGVWNVRTGYDVGYWQRGHAFLGLLWLAIAAWTLERGWRAAVMSEIETASA” as the sequence, how does the protein production read?
Its protein production is “failed”.

Which protein production does the source give for “MTRRGVALVARRLPSSPGRVYAVKIDEGEDVHSVLSSLAEAEDLGFAMVTGIGGMAEATVAFYSPPEATYYTVDVKPPEGRVIEVAAMTGNIVKTSQGYSVHIHVALGVSPGKSISGHLVKGVVKPFMEVFVVELVSGQGTPGTSVFDHREGFKASYKRLELEHHHHHH” here?
Its protein production is “failed”.

With “MTRRPLLLPALGLALGVGLGLEGATVPPAALGALPLALLPRLAPLAFAAAGWLAAASARVPPAAPPDGAVLVRGRVVGAPDRLEDRLRFPVRTAGGALLEAWAEPTPWPLALGDEVLFRATLRAPAGRRNPGGRDPGDRLRSGGAALVALADGPVVRTAAPAAASRLERARDRLAEAAGRWLPPDQAALVRAIGTGDRAALDPEASASFARSGLAHVLAVSGFHLVVVAFGLERLLRALLLRADAVAARADPRRVAAALTLPCALLYALATGAGAPVVRAALAAAVILAGALLDRAADPLNSLALAALAILAAEPAALLDASFQLSFAAVAGLALWATPLRGALPVARPAPGSWRARLLEPFLSGAAATVAATLATAPVLAFHFRQLPLLGVAANVAAIPLGAALTALAALAAVAAAASPLAAAPFLLAAGPLAAALRAVSDAAAAPRWGAVGLASPGGWAAAAATALVLGVPALPRRLRLGAGALAAALLLLPGPLRAAAARARGGLEVIFVSVGQGDAALLRLPDGSAVLVDGGGAAGGGPDPGARDLVPLLRDLGVRRLEAVFVSHPHPDHVLGLEAVARAFPVARAYSNGDRGDGPAREVLAALAPVTLAPGEAWERAGVRFEALGGDRTPFAANDASLVLRATYGATTFLFPGDVEAAGEAAAVARGGLRADVVKIPHHGSRTSSTEPFVRAVRARWAVACLGAHNRFGFPHPEPLARWAAAGAEVLRTDEGAVRFLSDGRAVRRVEAGSVLDALATWREQP” as the sequence, how does the protein production read?
Its protein production is “failed”.

Which protein production does the source give for “MTRRTAFFFDELCLWHAAGPHALTLPVGGWVQPPAAAGHAESPETKRRLKSLLDVSGLTARLQLRSAPPASDEDLLRVHPAHYLERFKALSDAGGGSLGQDAPIGPGSYEIARLSAGLAIAALDAVLAGEADNAYSLSRPPGHHCLPDQAMGFCFFANIAVAIEAAKARHGVERVAVLDWDVHHGNGTQAIYYRRDDVLSISLHQDGCFPPGYSGAEDIGEDRGRGFNLNVPLLPGGGHDAYMQAMQRIVLPALERFRPQLIVVASGFDANAVDPLARMQLHSDSFRAMTAMVRDAAERHAGGRLVVVHEGGYSEAYVPFCGLAVIEELSGVRSAVRDPLRDFIELQQPNAAFRDFQRQRLEELAAQFGLCPAQPLQAAR” here?
The protein production was “failed”.

Which protein production does the source give for “MTRTISRILVTGTSGQLGALVIEELLKKIHASHLIAAARDPKALMAFSRRGVETRLLDYTDQISIEAAFQGVERLLLVSSNVIDQRLVQHRNVIEAAARAGVGLFAYTSLLHADNSSLLLAKDHVQTEALLKGSGIPYVLLRNGWYTENYTDSIGAALVHGAVLGSAGTGRIAAATRADYAAAAAAILASDVDQAGRTYELAGDEAFTMPEYAAEIAQQSGKPVIYRDLPEAEYAAILMQVGLPESFAAILAQSDIGASQGALFDDSHQLSTLIGRPTTPLREVVAKALSAVR” here?
Its protein production is “failed”.

For “MTRTVTGDTVQTRWGPVQVRVTVRNGVITEVTAVACPQENPKDREINSYAIPQLRREALAAQSAQIDSVSGATYTSDGYRQSLQSALDSAGLLEHHHHHH”, which protein production is on record?
The protein production was “not failed”.

For “MTSASAALPQQPGRTKAFLRLVMIEHSVFALPFAYIAALTAMFQWDRNIHWVRLLLVTVAMVGLRTFAMAANRIIDREIDARNPRTAHRELVTGAMSVRHAWTGALVALVFFLGAAALLNPLCLALAPIAVIPMVVYPYGKRFTNFPQAILGLAQAMGPVGGWLAISGEWSWDAVILGLAVGVWIGGFDLIYACQDVETDREVGVMSVPARFGIQAAIWGARVCHAITTALLVWYAFATDAGAFFWFGLVIVAGAFLYEHSIVKPHDLSRLNRAFFSTNGFIGISLFVCALGDLLVRGLTV”, which protein production is on record?
The protein production was “failed”.
